Measurements: paper PMC4059916 (2014)

B2: VARP451-640His6 (first ankyrin repeat domain, ANKRD1), wild type (domain or fragment)
chain: PSVVTPFSRDDRGHTPLHVAAVCGQASLIDLLVSKGAMVNATDYHGATPLHLACQKGYQSVTLLLLHYKASAEVQDNNGNTPLHLACTYGHEDCVKALVYYDVESCRLDIGNEKGDTPLHIAARWGYQGVIETLLQNGASTEIQNRLKETPLKCALNSKILSVMEAYHLSFERRQKSSEAPVQSPQRSVD

Assays:
Assay in all cases: ITC
[1] = target: T1, Rab32 1-225 (Q85L), GTP hydrolysis-defective mutant, GST removed (UniProt Q13637 1-225, Q85L)
T1 sequence: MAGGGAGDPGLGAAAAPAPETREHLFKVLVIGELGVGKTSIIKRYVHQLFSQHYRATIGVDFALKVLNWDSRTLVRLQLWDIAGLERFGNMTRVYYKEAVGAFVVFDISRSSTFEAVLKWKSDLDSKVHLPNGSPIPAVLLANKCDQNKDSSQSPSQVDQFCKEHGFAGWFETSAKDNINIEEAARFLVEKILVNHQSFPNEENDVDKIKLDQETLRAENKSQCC

[2] = target: Rab32(Q85L) mutated at M91/R93 (Switch-II), GST removed, as used in ITC (UniProt Q13637 1-225, Q85L)
[3] = target: B2

B1: VARP451-640His6 Q509A/Y550A (domain or fragment)
chain: PSVVTPFSRDDRGHTPLHVAAVCGQASLIDLLVSKGAMVNATDYHGATPLHLACQKGYASVTLLLLHYKASAEVQDNNGNTPLHLACTYGHEDCVKALVAYDVESCRLDIGNEKGDTPLHIAARWGYQGVIETLLQNGASTEIQNRLKETPLKCALNSKILSVMEAYHLSFERRQKSSEAPVQSPQRSVD
Kd [1]: > 300 µM

B2
Kd [2]: > 300 µM

B3: Rab32 (Q85L/G89T/N90S/V94L) (protein)
chain: MAGGGAGDPGLGAAAAPAPETREHLFKVLVIGELGVGKTSIIKRYVHQLFSQHYRATIGVDFALKVLNWDSRTLVRLQLWDIAGLERFTSMTRLYYKEAVGAFVVFDISRSSTFEAVLKWKSDLDSKVHLPNGSPIPAVLLANKCDQNKDSSQSPSQVDQFCKEHGFAGWFETSAKDNINIEEAARFLVEKILVNHQSFPNEENDVDKIKLDQETLRAENKSQCC
modifications: Construct limits taken from the parent Rab32 1-225 (PDB 4CYM entity 1); Mg2+ and GTP-analogue state (GppCp or GTPgammaS) presumed
Kd [3]: 13 µM
